# Reference: patent publication US20260041732A1, “USE OF APELIN FOR THE TREATMENT OF LYMPHEDEMA” (INSTITUT NATIONAL DE LA SANTE ET DE LA RECHERCHE MEDICALE, priority 2022, published 2026)
# What was measured:
# Assay type in all cases: cell-based
# [1] = test system: Human dermal lymphatic endothelial cells (HDLEC); assay: Cell migration, cell junction and cytoskeleton remodeling
# [2] = test system: Human dermal lymphatic endothelial cells (HDLEC); assay: Bulk RNA-sequencing, differential gene expression and GO analysis
# Protocol: Human dermal lymphatic endothelial cells (HDLEC) (single donor, juvenile foreskin, Promocell, C-12216, >95% of the cells are CD31 positive and podoplanin positive) were cultured in Endothelial Cell Media MV2 (EGM-MV2, Promocell, C-22121). NIH3T3 were cultured in Dulbecco's modified Eagle's medium (DMEM, Sigma, D6429) supplemented with 10% fetal bovine serum (FBS, Gibco, 10270-06) and 1% penicillin-streptomycin. Endothelial cells were used at passage 3-6 and human fibroblasts were used at passage 4-7. Cells were cultured at 37° C. in a 5% CO2 incubator. Culture medium was changed 3 times a week, and the cells were passaged ⅓. For collecting conditioned media, NIH3T3 were grown in 10 cm dishes, after reaching confluence, medium was removed and the cells were washed once with PBS. NIH3T3 were cultured overnight in 5 mL reduced serum medium optiMEM (Gibco), the medium was then collected and used for experiments. HDLEC were treated with 50% conditioned media/50% MV2-05% FBS. Total RNA from HDLEC transduced or not with Apelin Lentivector were prepared using the RNeasy mini kit (Qiagen 74106). Total RNA were then subjected to ribosomal-RNA depleted RNA sequencing (RNA-Seq) protocol performed by Genewiz company using Illumina HiSeq, PE 2×150 configuration. Sequence reads were trimmed to remove possible adapter sequences and nucleotides with poor quality using Trimmomatic v.0.36. The trimmed reads were mapped to the Homo sapiens GRCh38 reference genome available on ENSEMBL using the STAR aligner v.2.5.2b. The STAR aligner is a splice aligner that detects splice junctions and incorporates them to help align the entire read sequences. BAM files were generated as a result of this step. Unique gene hit counts were calculated by using feature Counts from the Subread package v.1.5.2. The hit counts were summarized and reported using the gene_id feature in annotation file. Only unique reads that fell within exon regions were counted. Distribution of read counts in libraries were examined before and after normalization. The original read counts were normalized to adjust for various factors such as variations of sequencing yield between samples. These normalized read counts were used to accurately determine differentially expressed genes. Data quality assessments were performed to detect any samples that are not representative of their group, and thus, may affect the quality of the analysis. The overall similarity among samples were assessed by the Euclidean distance between samples. This method was used to examine which samples are similar/different to each other and if they fit to the expectation from the experiment design. The shorter the distance, the more closely related the samples are. Samples were then clustered by using the distance. A principal component analysis was also performed to reveal the similarity between samples based on the distance matrix. After extraction of gene hit counts, the gene hit counts table was used for downstream differential expression analysis. Using DESeq2, a comparison of gene expression between Apelin transduced LEC against non-transduced LEC was performed. The Wald test was used to generate p-values and log2 fold changes. […] The global transcriptional change across the two groups compared was visualized by a volcano plot. Each data point in the volcano plot represents a gene. The log2 fold change of each gene is represented on the x-axis and the log10 of its adjusted p-value is on the y-axis.
# [3] = test system: Human dermal lymphatic endothelial cells (HDLEC); assay: Immunoblotting of AKT, ERK and eNOS phosphorylation; settings: conditioned media
# Protocol: Human dermal lymphatic endothelial cells (HDLEC) (single donor, juvenile foreskin, Promocell, C-12216, >95% of the cells are CD31 positive and podoplanin positive) were cultured in Endothelial Cell Media MV2 (EGM-MV2, Promocell, C-22121). NIH3T3 were cultured in Dulbecco's modified Eagle's medium (DMEM, Sigma, D6429) supplemented with 10% fetal bovine serum (FBS, Gibco, 10270-06) and 1% penicillin-streptomycin. Endothelial cells were used at passage 3-6 and human fibroblasts were used at passage 4-7. Cells were cultured at 37° C. in a 5% CO2 incubator. Culture medium was changed 3 times a week, and the cells were passaged ⅓. For collecting conditioned media, NIH3T3 were grown in 10 cm dishes, after reaching confluence, medium was removed and the cells were washed once with PBS. NIH3T3 were cultured overnight in 5 mL reduced serum medium optiMEM (Gibco), the medium was then collected and used for experiments. HDLEC were treated with 50% conditioned media/50% MV2-05% FBS.
# Cells were scrapped and lysed in RIPA buffer (RIPA 2X, Biotech RB4476) supplemented with phosphatase inhibitor (PhosSTOP Easypack, Roche0490687001) and protease inhibitors (protease inhibitor cocktail, Sigma Aldrich). Lysates were centrifuged at 13500 g for 10 minutes at 4° C. Supernatants were then collected and mix with Laemmli buffer containing dithiothreitol (DTT 1 mM). Protein were resolved on 4-15% SDS-PAGE gels and transferred to nitrocellulose membrane (Trans-Blot Turbo RTA transfer kit, #1704271, Biorad). Membranes were blocked for 1h at room temperature in 5% BSA-TBS-T (TBS-0.1% Tween 20) and probed with primary antibody overnight at 4° C. Antibody used are the following: Phospho AKT: AKT-p ser473 (CS #4060S), AKT: santa cruz H136 (S8312), Phospho ERK: ERK1/2-p (MAPKp42/44) (Thr202/Thr204) (cell signalling #9106), ERK ERK1/2-(MAPKp42/44) (Thr202/Thr204) (cell signalling #9102), Phospho eNOS (cell signalling #9571S), eNOS (cell signalling #5880S), E2F8 (Abcam, AB109596), VEGFR3 (RID system AF349), Phospho-VEGFR3 (Affinity AF3676), CCBE1 (Sigma SAB1402017).
# After three washes in TBS-T, membranes were probed with HRP-conjugated secondary antibodies at 1/10000 dilution. Signals were visualized with chemiluminescence detection reagent (Sigma) on a Chemidoc (Biorad) digital acquisition system.
molecule,measurement,setting,value
"APELIN: bioactive peptide apelin, endogenous ligand of APJ; applied to HDLEC as conditioned media from LV-Apelin transduced NIH3T3 or by transduction (protein, listed as Homo sapiens) MNLRLCVQALLLLWLSLTAVCGGSLMPLPDGNGLEDGNVRHLVQPRGSRNGPGPWQGGRRKFRRQRPRLSHKGPMPF",endothelial monolayer integrity,[1],no effect
same,cell junction or cytoskeleton remodeling,[1]; HDLEC,no effect
same,cell migration,[1]; HDLEC,activation of cell migration
same,GO analysis of down regulated genes,[2],no biological process was significantly affected
same,"GO analysis for biological process, upregulated genes",[2]; FDR<0.05,enriched (FDR<0.05) for terms related to extracellular matrix (ECM) remodelling and signalisation
same,number of genes up regulated by both apelin and VEGF-C,"[2]; HDLEC, conditioned media",43 genes
same,number of genes up regulated by both apelin and apelin+VEGF-C,"[2]; HDLEC, conditioned media",31 genes
same,"number of genes up regulated by both apelin, VEGF-C and apelin+VEGF-C","[2]; HDLEC, conditioned media",19 genes
same,expression of E2F8,[2]; LEC,stimulated
same,"expression of genes related to VEGFC maturation (ADAMTS2, CCBE1)",[2]; compared to WT,improved
same,number of genes deregulated,"[2]; conditioned media vs control NIH3T3 media, p.adj<0.05 and Log2 fold change<-0.5 or >0.5",217 genes
same,number of genes down regulated,"[2]; p.adj<0.05, Log2 fold change <-0.5",123 genes
same,number of genes up regulated,"[2]; p.adj<0.05, Log2 fold change >0.5",94 genes
same,eNOS phosphorylation,[3]; HDLEC,observed
same,AKT activation (phosphorylation),[3]; 24 h time course,stimulated Akt phosphorylation after 1 hour
same,ERK activation,[3]; 24 h time course,without major effect
same,AKT activation (phosphorylation),"[3]; 24 h time course, listed as apelin",lesser extent than the phosphorylation induced by VEGF-C
